Where two headings read alike, the source gives them in different places. Numbered stars: 1 amine (or outer) side, 2 acyl side, 3 side chain; on linkers, the order of the positions; unused ones are H or OH. Square brackets hold non-standard residues; d marks the D form. Ends that are not written are not given here. * marks the point of attachment. CO(CH2CH2O)13CH2CH2CO = O=C(CCOCCOCCOCCOCCOCCOCCOCCOCCOCCOCCOCCOCCOCCC(=O)[*:2])[*:1]; 5FAM = O=C1OC2(c3ccc(O)cc3Oc3cc(O)ccc32)c2ccc(C(=O)*)cc21; NMeE = CN[C@@H](CCC(=O)O)C(=O)O
Key:
[1] = target: T1, HIS-PDZ1-2 protein (PSD-95 PDZ1-2 tandem, residues 61-249, with tag …) (human, UniProt P78352 61-249); assay: FP competition, fluorescent NR2B probe; exact Ki not calculable
[2] = target: T2, HIS-PDZ2 protein (PSD-95 PDZ2, residues 155-249, with tag …) (human, UniProt P78352 155-249); assay: ITC
[3] = target: T1, HIS-PDZ1-2 protein (PSD-95 PDZ1-2 …); assay: ITC
[4] = target: T2, HIS-PDZ2 protein (PSD-95 PDZ2, residues …); assay: FP competition, fluorescent NR2B probe
[5] = target: T3, HIS-PDZ1 protein (PSD-95 PDZ1, residues 61-151, with tag …) (human, UniProt P78352 61-151); assay: FP saturation binding
T3 construct: expressed in E. coli

[6] = target: T4, HIS-PDZ3 protein (PSD-95 PDZ3, residues 309-401, with tag …) (human, UniProt P78352 309-401); assay: FP saturation binding
[7] = target: T2, HIS-PDZ2 protein (PSD-95 PDZ2, residues …); assay: FP saturation binding
[8] = target: T1, HIS-PDZ1-2 protein (PSD-95 PDZ1-2 …); assay: FP saturation binding
[9] = target: T5, HIS-PDZ1-2 with tryptophan instead of isoleucine (PDZ1-2 I195W) (human, UniProt P78352 61-249); assay: stopped-flow fluorimetry, Trp fluorescence; stopped-flow fluorescence titration, not FP
T5 construct: Used in the stopped-flow fluorimetry of ligand 74; also called PDZ1-21195W (so in the source)

[10] = target: T2, HIS-PDZ2 protein (PSD-95 PDZ2, residues …); assay: FP competition, fluorescent NR2B probe; remark: listed apart in the source
[11] = target: T4, HIS-PDZ3 protein (PSD-95 PDZ3, residues …); assay: FP competition: fluorescent CRIPT probe (50 nM) on PDZ3 (5 µM)
[12] = target: T1, HIS-PDZ1-2 protein (PSD-95 PDZ1-2 …); assay: FP competition, fluorescent NR2B probe; exact Ki not calculable; remark: listed apart in the source
[13] = target: T2, HIS-PDZ2 protein (PSD-95 PDZ2, residues …); assay: FP competition, alanine scan
[14] = target: T4, HIS-PDZ3 protein (PSD-95 PDZ3, residues …); assay: FP competition, fluorescent CRIPT probe
[15] = target: T4, HIS-PDZ3 protein (PSD-95 PDZ3, residues …); assay: FP competition, fluorescent CRIPT probe; remark: listed apart in the source
[16] = target: T1, HIS-PDZ1-2 protein (PSD-95 PDZ1-2 …); assay: FP competition, fluorescent NR2B probe
[17] = target: T3, HIS-PDZ1 protein (PSD-95 PDZ1, residues …); assay: FP competition assay (Ki), fluorescent NR2B probe displaced from the PDZ domain; bar chart
[18] = target: T2, HIS-PDZ2 protein (PSD-95 PDZ2, residues …); assay: as above
[19] = target: T1, HIS-PDZ1-2 protein (PSD-95 PDZ1-2 …); assay: ITC; dimeric ligand, two IETAV joined by a PEG4 linker (X = 4)
[20] = target: T1, HIS-PDZ1-2 protein (PSD-95 PDZ1-2 …); assay: ITC / FP
[21] = target: T3, HIS-PDZ1 protein (PSD-95 PDZ1, residues …); assay: FP competition, fluorescent NR2B probe
[22] = target: T1, HIS-PDZ1-2 protein (PSD-95 PDZ1-2 …); assay: FP competition: displaces fluorescent NR2B probe (50 nM) from PDZ1-2 (3 µM)
[23] = target: T1, HIS-PDZ1-2 protein (PSD-95 PDZ1-2 …); assay: as above; remark: listed apart in the source
[24] = target: T2, HIS-PDZ2 protein (PSD-95 PDZ2, residues …); assay: FP competition: displaces fluorescent NR2B probe (50 nM) from PDZ2 (3 µM)
[25] = target: T3, HIS-PDZ1 protein (PSD-95 PDZ1, residues …); assay: FP competition: displaces fluorescent NR2B probe (50 nM) from PDZ1 (20 µM)
[26] = target: T3, HIS-PDZ1 protein (PSD-95 PDZ1, residues …); assay: FP competition, fluorescent NR2B probe; remark: listed apart in the source
[27] = target: T2, HIS-PDZ2 protein (PSD-95 PDZ2, residues …); assay: FP competition, fluorescent NR2B probe; remark: listed apart in the source
[28] = target: T1, HIS-PDZ1-2 protein (PSD-95 PDZ1-2 …); assay: FP competition, fluorescent NR2B probe; remark: listed apart in the source

{PEG4‑diacid}-IESDV (also: dimer: two peptides N-terminally joined via PEG4-diacid, Dimeric ligand) [(IESDV)2PEG4 (78)] showed a Ki [1] of about 0.1 µM, a Kd [2] of 3.3 µM and a Kd [3] of 0.032 µM. It also gave a Ki [4] of 2.7 µM.

B1: 5-FAM/Cy5-NR2B (peptide)
peptide: 5FAM-KSGYEKLSSIESDV
modifications: also: entry also covers Cy5-NR2B: CSG linker, Cy5-maleimide on Cys
notes: Kd said to be independent of the fluorophore; also called 5-FAM-NR2B; 5-Fam-NR2B peptide
In the case of B1, the Kd [5] is reported as 20 µM, the binding result [6] is reported as “no binding” and the Kd [7] is reported as 3 µM. The Kd [8] was 1.7 µM.

In the case of {PEG12‑diacid}-IESDV (also: dimer: two peptides N-terminally joined via PEG12-diacid, Dimeric ligand) [(IESDV)2PEG12 (74)], the Ki [9] is reported as about 0.1 µM, the Ki [10] is reported as 2.8 µM and the binding result [11] is reported as “no binding (tested: log(Conc/M) about -3.3)”. The Ki [12] was about 0.1 µM, the Ki [1] was about 0.1 µM and the Kd [3] was 0.09 µM. It also gave a Ki [4] of 3.1 µM.

In the case of IEADV [Compound 12 (IESDV with Ser P^-2 replaced by Ala)], the “fold increase in Ki on Ala substitution of Ser (P^-2) in pentapeptide (7)” value [13] is reported as 7 fold.

In the case of IESAV [Compound 13 (IESDV with Asp P^-1 replaced by Ala)], the “fold higher Ki than CRIPT” value [14] is reported as over 30 fold.

For KSGYEKLSSIESDV (also called NR2B peptide (1); NR2B WT) [NR2B (1), non-fluorescent NR2B peptide KSG-YEKLSSIESDV], the binding result [15] was “no binding” and the Ki [16] was 6.8 µM.

B2: SIESDV (6) (peptide)
peptide: SIESDV
notes: N-terminal truncation of the NR2B peptide (1)
B2: binds [17]; binds [18].

B3: (IETAV)2PEG4 (83) (peptide)
peptide: IETAV
modifications: also: dimer: two peptides joined at N-terminal amines by amide bonds through a PEG4-diacid linker
notes: Dimeric ligand
For B3, the Ki [1] was about 0.1 µM, the Kd [19] was 0.011 µM and the Ki [4] was 1.1 µM. The “fold increase in affinity compared to monomeric IETAV (82)” value [20] was 176 fold.

B4: (GE[N-Cyclohexylethyl]TDV)2PEG12 (75) (peptide)
peptide: {CO(CH2CH2O)13CH2CH2CO}-GETDV-OH
modifications: not fully specified (residue 2); printed as (GE[N-Cyclohexylethyl]TDV)2PEG12 (75); also: dimer: two peptides N-terminally joined via PEG12-diacid
notes: Dimeric ligand; also called (GE[R]TDV)2-PEG12 (75)
B4 showed a Ki [21] of 83 µM, a Ki [10] of 55 µM and a Ki [16] of 5.5 µM. B4: no binding (tested: log(Conc/M) about -3.6) [11].

B5: SSIESDV (5) (peptide)
peptide: SSIESDV
notes: as for B2
B5: binds [17]; binds [18].

With IESDV (also called pentapeptide (7)) [IESDV (7)] the “IC50 (read off the curve)” value [22] was about 10 µM, the “IC50 (read off the curve)” value [23] was about 9 µM and the “IC50 (read off the curve)” value [24] was about 9 µM. For the same binder, the “IC50 (read off the curve)” value [25] was about 50 µM, the Kd [2] was 2.6 µM and the Ki [4] was 3.1 µM.

Work on [NMeE]TAV (also called N-Methyl-ETAV (40)) [EMeTAV (40)] yielded a Ki [26] of 11 µM, a Ki [27] of 8.9 µM and a Ki [14] of about 79 µM.

Binder 5FAM-KSGLDTKNYKQTSV (also: entry also covers Cy5-CRIPT: CSG linker, Cy5-maleimide on Cys, also called 5-FAM-CRIPT) [5-FAM/Cy5-CRIPT] has a Kd [6] of 3.5 µM.

For {PEG0‑diacid}-IESDV (also: dimer: two peptides N-terminally joined via PEG0-diacid, Dimeric ligand) [Compound 81 (IESDV dimerized with PEG0-diacid)], the “IC50 (read off the curve)” value [23] was about 5 µM, the Kd [3] was 1.1 µM and the Ki [4] was 3.1 µM. For the same binder, the Ki [28] was 1.5 µM.

With KQTSV [truncated CRIPT pentapeptide (KQTSV)] the “fold reduction in Ki (so in the source) compared with CRIPT peptide (2)” value [14] was 14 fold.

Source: US20160176924A1 (UNIVERSITY OF COPENHAGEN, published 2016)
